From patent publication US20220089698A1 (published 2022)
Positions count from the first letter of the chain named.

B1: 1.32.33-1 (antibody, human IgG1, kappa)
heavy: QVQLVQSGAEVTKPGASVRVSCEASGYNIRDYFIHWWRQAPGQGLQWVGWINPKTGQPNNPRQFQGRVSLTRHASWDFDTFSFYMDLKALRSDDTAVYFCARQRTDYWDFDVWGSGTQVTVSSASTKGPSVFPLAPSSKSTSGGTAALGCLVKDYFPEPVTVSWNSGALTSGVHTFPAVLQSSGLYSLSSVVTVPSSSLGTQTYICNVNHKPSNTKVDKKVEPKSCDKTHTCPPCPAPELLAGPDVFLFPPKPKDTLMISRTPEVTCVVVDVSHEDPEVKFNWYVDGVEVHNAKTKPREEQYNSTYRVVSVLTVLHQDWLNGKEYKCKVSNKALPLPEEKTISKAKGQPREPQVYTLPPSREEMTKNQVSLTCLVKGFYPSDIAVEWESNGQPENNYKTTPPVLDSDGSFFLYSKLTVDKSRWQQGNVFSCSVLHEALHSHYTQKSLSLSPGK
light: DIQMTQSPSSLSASVGDTVTITCQANGYLNWYQQRRGKAPKLLIYDGSNLERGVPSRFSGRRWGQEYTLTISSLQPEDIATYFCQVYEFVVPGTNLDIKRTVAAPSVFIFPPSDEQLKSGTASVVCLLNNFYPREAKVQWKVDNALQSGNSQESVTEQDSKDSTYSLSSTLTLSKADYEKHKVYACEVTHQGLSSPVTKSFNRGEC
B2: 1.36.34-1 (antibody, human IgG1, kappa)
heavy: QVQLVQSGAEVKKPGASVRVSCKASGYNIRDYFMHWWRQAPGQGLQWVGWINPKTGQPNNPRQFQGRVTMTRHASWDFDTFSAYMDLSRLRSDDTATYFCARQRTDYWDFDVWGQGTMVTVSSASTKGPSVFPLAPSSKSTSGGTAALGCLVKDYFPEPVTVSWNSGALTSGVHTFPAVLQSSGLYSLSSVVTVPSSSLGTQTYICNVNHKPSNTKVDKKVEPKSCDKTHTCPPCPAPELLAGPDVFLFPPKPKDTLMISRTPEVTCVVVDVSHEDPEVKFNWYVDGVEVHNAKTKPREEQYNSTYRVVSVLTVLHQDWLNGKEYKCKVSNKALPLPEEKTISKAKGQPREPQVYTLPPSREEMTKNQVSLTCLVKGFYPSDIAVEWESNGQPENNYKTTPPVLDSDGSFFLYSKLTVDKSRWQQGNVFSCSVLHEALHSHYTQKSLSLSPGK
light: B1 light with V91T, N95R
B3: 1.35.34-1 (antibody, human IgG1, kappa)
heavy: B2 heavy with A83F
light: B1 light with V91T, N95R
B4: 1.1.36-1 (antibody, human IgG1, kappa)
heavy: B1 heavy with V5L, E10A, T105S
light: B1 light with T18R, R35K, R36P, R52T, R61S, V91T
B5: 1.31.34-1 (antibody, human IgG1, kappa)
heavy: B1 heavy with V97T, T105S
light: B1 light with V91T, N95R
B6: 1.34.34-1 (antibody, human IgG1, kappa)
heavy: B1 heavy with T12K, E23K, S69T
light: B1 light with V91T, N95R
B7: 1.1.34-1 (antibody, human IgG1, kappa)
heavy: B1 heavy with V5L, E10A, T105S
light: B1 light with V91T, N95R
B8: 1.32.34-1 (antibody, human IgG1, kappa)
heavy: B1 heavy
light: B1 light with V91T, N95R
B9: 1.35.33-1 (antibody, human IgG1, kappa)
heavy: B2 heavy with A83F
light: B1 light
B10: 1.33.34-1 (antibody, human IgG1, kappa)
heavy: B1 heavy with T12K, E23K, S69T, V97T, T105S
light: B1 light with V91T, N95R
B11: 1.33.33-1 (antibody, human IgG1, kappa)
heavy: B1 heavy with T12K, E23K, S69T, V97T, T105S
light: B1 light
B12: 1.31.36-1 (antibody, human IgG1, kappa)
heavy: B1 heavy with V97T, T105S
light: B1 light with T18R, R35K, R36P, R52T, R61S, V91T
B13: 1.34.33-1 (antibody, human IgG1, kappa)
heavy: B1 heavy with T12K, E23K, S69T
light: B1 light
B14: 1.1.35-1 (antibody, human IgG1, kappa, V domains shown)
VH: QVQLLQSGAAVTKPGASVRVSCEASGYNIRDYFIHWWRQAPGQGLQWVGWINPKTGQPNNPRQFQGRVSLTRHASWDFDTFSFYMDLKALRSDDTAVYFCARQRSDYWDFDVWGSGTQVTVSS
VL: DIQMTQSPSSLSASVGDRVTITCQANGYLNWYQQKPGKAPKLLIYDGSNLETGVPSRFSGSRWGQEYTLTISSLQPEDIATYFCQVYEFVGPGTNLDIKR
B15: 1.33.35-1 (antibody, human IgG1, kappa, V domains shown)
VH: B14 VH with L5V, A10E, T12K, E23K, S69T, V97T
VL: B14 VL
B16: 1.35.35-1 (antibody, human IgG1, kappa, V domains shown)
VH: QVQLVQSGAEVKKPGASVRVSCKASGYNIRDYFMHWWRQAPGQGLQWVGWINPKTGQPNNPRQFQGRVTMTRHASWDFDTFSFYMDLSRLRSDDTATYFCARQRTDYWDFDVWGQGTMVTVSS
VL: B14 VL
B17: 1.31.35-1 (antibody, human IgG1, kappa, V domains shown)
VH: B14 VH with L5V, A10E, V97T
VL: B14 VL
B18: 1.36.35-1 (antibody, human IgG1, kappa, V domains shown)
VH: B16 VH with F83A
VL: B14 VL
B19: 1.32.35-1 (antibody, human IgG1, kappa, V domains shown)
VH: B14 VH with L5V, A10E, S105T
VL: B14 VL
B20: 1.34.35-1 (antibody, human IgG1, kappa, V domains shown)
VH: B14 VH with L5V, A10E, T12K, E23K, S69T, S105T
VL: B14 VL

What follows are binders tested against HIV gp120 Bal (HIV) (assay: single-point ELISA; also: test concentration or dose not given here).

First: B1
Second: B2
The “ELISA (A450)” value of the first is lower: 0.93 A450 for the first, 1.01 A450 for the second.

Going from B3 to B4, the “ELISA (A450)” value falls from 1 A450 to 0.93 A450.

Compared with B5, B6 is higher in “ELISA (A450)” value: 0.76 A450 for the first, 0.89 A450 for the second.

Compared with B7, B8 is lower in “ELISA (A450)” value: 0.9 A450 for the first, 0.81 A450 for the second.

Compared with B9, B10 is higher in “ELISA (A450)” value: 0.9 A450 for the first, 0.95 A450 for the second.

Compared with B11, B12 is lower in “ELISA (A450)” value: 1.09 A450 for the first, 1.06 A450 for the second.

Compared with B13, B14 is lower in “ELISA (A450)” value: 1.1 A450 for the first, 0.96 A450 for the second.

Going from B15 to B16, the “ELISA (A450)” value falls from 1.03 A450 to 0.88 A450.

Compared with B17, B18 is lower in “ELISA (A450)” value: 0.9 A450 for the first, 0.89 A450 for the second.

Compared with B19, B20 is higher in “ELISA (A450)” value: 0.89 A450 for the first, 0.94 A450 for the second.

Each binder was assayed against HIV gp120 CAAN (HIV) (assay: single-point ELISA; also: test concentration or dose not given here).

First: B1
Second: B2
The “ELISA (A450)” value of the first is higher: 0.68 A450 for the first, 0.43 A450 for the second.

Going from B3 to B4, the “ELISA (A450)” value rises from 0.85 A450 to 0.88 A450.

Going from B5 to B6, the “ELISA (A450)” value rises from 0.86 A450 to 0.88 A450.

Compared with B7, B8 is lower in “ELISA (A450)” value: 0.96 A450 for the first, 0.86 A450 for the second.

Going from B9 to B10, the “ELISA (A450)” value rises from 0.91 A450 to 0.95 A450.

Going from B11 to B12, the “ELISA (A450)” value falls from 1.06 A450 to 0.9 A450.

First: B13
Second: B14
The “ELISA (A450)” value of the first is higher: 1.04 A450 for the first, 0.75 A450 for the second.

Going from B15 to B16, the “ELISA (A450)” value falls from 0.81 A450 to 0.67 A450.

Compared with B17, B18 is lower in “ELISA (A450)” value: 0.77 A450 for the first, 0.36 A450 for the second.

First: B19
Second: B20
The “ELISA (A450)” value of the first is lower: 0.59 A450 for the first, 0.77 A450 for the second.
